Publication PMC4069020, “A 14.7 kDa Protein from Francisella tularensis subsp. novicida (Named FTN_1133), Involved in the Response to Oxidative Stress Induced by Organic Peroxides, Is Not Endowed with Thiol-Dependent Peroxidase Activity” (PLoS ONE, 2014)

Target: the molecule itself
Assay: non-reducing SDS-PAGE

B1: FTN_1133 (14.7 kDa protein from Francisella tularensis subsp. novicida), recombinant His-tagged (natural protein)
chain: MAISQNVIKILQDIDELDLFSNISDEWSTLLNESDDNIKIKKLYSALVKESIRRETAERLAKDAKSYCDLVQEQAKQRISDLKESLESQITFLTQQIKDLKVESAKNLDYYRNELKKANRSLIDNKS
notes: also called His-FTN_1133
- stoichiometry N: 2
